From US20060057696A1, “Sugar chain synthases” (priority 2002, published 2006)

T1: PA-hST6Gal II (human ST6Gal II) (Homo sapiens, UniProt Q96JF0)
T1 construct: amino acids 33-529 in the case of human ST6Gal II; signal peptide of mouse immunoglobulin IgM (N); made in house; host or cells: COS-7 cells, transient expression of pcDSA-hST6Gal II; protein recovered from medium on IgG-Sepharose
T1 sequence (Q96JF0 33-529): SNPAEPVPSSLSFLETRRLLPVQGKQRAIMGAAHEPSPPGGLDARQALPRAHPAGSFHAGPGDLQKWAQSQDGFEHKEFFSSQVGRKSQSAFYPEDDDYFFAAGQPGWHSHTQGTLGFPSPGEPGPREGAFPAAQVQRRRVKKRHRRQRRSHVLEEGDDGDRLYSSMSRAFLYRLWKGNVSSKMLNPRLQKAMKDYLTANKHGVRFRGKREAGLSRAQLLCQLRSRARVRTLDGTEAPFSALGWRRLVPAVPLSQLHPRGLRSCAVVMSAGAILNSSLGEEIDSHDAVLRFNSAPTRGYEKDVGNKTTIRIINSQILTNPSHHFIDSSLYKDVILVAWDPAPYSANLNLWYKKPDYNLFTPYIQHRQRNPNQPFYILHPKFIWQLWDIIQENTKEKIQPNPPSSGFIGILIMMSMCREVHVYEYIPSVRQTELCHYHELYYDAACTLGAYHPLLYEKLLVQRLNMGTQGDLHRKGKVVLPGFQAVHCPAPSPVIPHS

T2: human ST6Gal I (Homo sapiens, UniProt P15907)
T2 sequence (P15907 1-406): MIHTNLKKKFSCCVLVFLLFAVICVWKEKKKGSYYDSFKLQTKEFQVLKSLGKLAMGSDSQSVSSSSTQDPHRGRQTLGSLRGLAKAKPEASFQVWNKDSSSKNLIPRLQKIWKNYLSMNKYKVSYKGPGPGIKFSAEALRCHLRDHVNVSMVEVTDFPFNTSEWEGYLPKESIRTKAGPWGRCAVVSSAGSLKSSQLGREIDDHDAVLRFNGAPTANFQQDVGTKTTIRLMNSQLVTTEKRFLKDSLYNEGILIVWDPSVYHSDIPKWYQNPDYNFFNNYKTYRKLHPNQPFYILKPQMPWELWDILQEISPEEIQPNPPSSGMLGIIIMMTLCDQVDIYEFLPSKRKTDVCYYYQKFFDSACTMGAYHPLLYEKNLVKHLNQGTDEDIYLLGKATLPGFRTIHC

B1: Ovomucoid: glycoprotein acceptor substrate which contains only N-glycans (protein, UniProt P01005 25-210, looked up)
Ovomucoid: AEVDCSRFPNATDKEGKDVLVCNKDLRPICGTDGVTYTNDCLLCAYSIEFGTNISKEHDGECKETVPMNCSSYANTTSEDGKVMVLCNRAFNPVCGTDGVTYDNECLLCAHKVEQGASVDKRHDGGCRKELAAVSVDCSEYPKPDCTAEDRPLCGSDNKTYGNKCNFCNAVVESNGTLTLSHFGKC
B2: Asialoovomucoid: desialylated ovomucoid prepared at 80° C. for 1 hour in 0.02 N HCl (protein, UniProt P01005 25-210, looked up)
Ovomucoid: B1 Ovomucoid
modifications: desialylated
notes: desialylated ovomucoid prepared at 80° C. for 1 hour in 0.02 N HCl

target: T1, PA-hST6Gal II (human ST6Gal II); test: Sialyltransferase activity of PA-hST6Gal II toward acceptor substrates; type: biochemical; details: PA-hST6Gal II; incorporation with Galβ1,4GlcNAc taken as 100; 0.5 mg/ml glycolipids, 1 mg/ml glycoproteins and oligosaccharides
Procedure: (§1) Using each expression vector and lipofectamine (Invitrogen), transient expression was carried out in COS-7 cells (Kojima, N. et al. (1995) FEBS Lett. 360, 1-4). The proteins of the present invention secreted from the cells into which each expression vector had been introduced were named as PA-hST6Gal II (human) and PA-mST6Gal II (mouse). PA-hST6Gal II and PA-mST6Gal II were adsorbed to IgG-Sepharose (Amersham Pharmacia Biotech), and were then recovered from medium. Sialyltransferase activity was measured as follows according to the method of Lee et al. (Lee, Y.-C. et al. (1999) J Biol. Chem. 274, 11958-11967). A reaction mixture (10 μl) containing 50 mM MES buffer (pH 6.0), 1 mM MgCl2, 1 mM CaCl2, 0.5% Triton CF-54, 100 μM CMP-[^14C]-NeuAc, a substrate sugar chain (which was added at 0.5 mg/ml in the case of glycolipids, and at 1 mg/ml in the case of glycoproteins or oligosaccharides), and a PA-hST6Gal II or PA-mST6Gal II suspension, was incubated at 37° C. for 3 to 20 hours. Thereafter, in the case of glycolipids, the reaction product was purified with a C-18 column (Sep-Pak Vac 100 mg; Waters) and the purified product was used as a sample. In the case of oligosaccharides or glycoproteins, the reaction product was directly used as a sample. Thus, the obtained sample was subjected to analysis. In the case of oligosaccharides or glycolipids, the sample was spotted on a silica gel 60 HPTLC plate (Merck), and it was then developed with a developing solvent consisting of 1-propanol:ammonia water:water=6:1:2.5 (for oligosaccharides), or a developing solvent consisting of chloroform:methanol: 0.02% CaCl2=55:45:10 (for glycolipids). In the case of glycoproteins, analysis was carried out by SDS-polyacrylamide gel electrophoresis. The obtained radioactivities were visualized with a BAS2000 radio image analyzer (Fuji Film) and then quantified.

Q: “Asialofetuin: asialo glycoprotein acceptor substrate purchased from Sigma” was tested. Which “Relative rate (%) Human ST6Gal II” value did it give?
A: 3.9%

Q: NeuAcα2,3Galβ1,4Glcβ1-Cer [GM3] was tested. Which “Relative rate (%) Human ST6Gal II” value did it give?
A: 0%

Q: For Galβ1,4Glcβ1-Cer [Lactosylceramide], which “Relative rate (%) Human ST6Gal II” value is on record?
A: 0%

Q: With “α1-Acid glycoprotein: glycoprotein acceptor substrate purchased from Sigma” as the molecule, how does the “Relative rate (%) Human ST6Gal II” value read?
A: 1.2%

Q: For “Asialo- α1-Acid glycoprotein: desialylated α1-acid glycoprotein prepared at 80° C. for 1 hour in 0.02 N HCl”, which “Relative rate (%) Human ST6Gal II” value is on record?
A: 1.2%

Q: “Fetuin: glycoprotein acceptor substrate containing both O-glycans and N-glycans, purchased from Sigma” was tested. Which “Relative rate (%) Human ST6Gal II” value did it give?
A: 0%

Q: With “Galβ1,3GalNAcβ1,4(NeuAcα2,3)Galβ1,4Glcβ1-Cer [GM1a]” as the molecule, how does the “Relative rate (%) Human ST6Gal II” value read?
A: 0%

Q: Which “Relative rate (%) Human ST6Gal II” value does the source give for B1 here?
A: 0%

Q: B2 was tested. Which “Relative rate (%) Human ST6Gal II” value did it give?
A: 0%

target: T2, human ST6Gal I; test: Sialyltransferase activity of human ST6Gal I toward acceptor substrates (comparison); type: biochemical; details: incorporation with Galβ1,4GlcNAc taken as 100; 0.5 mg/ml glycolipids, 1 mg/ml glycoproteins and oligosaccharides
Procedure: as §1
In contrast, there were no glycolipids, which could be substrates of both the enzymes, as far as the inventors have examined. The activity of human ST6Gal I on oligosaccharides was also examined for comparison. […] (FIG. 10).

Q: With “Asialofetuin: asialo glycoprotein acceptor substrate purchased from Sigma” as the molecule, how does the “Relative rate (%) Human ST6Gal I” value read?
A: 95.0%

Q: NeuAcα2,3Galβ1,4Glcβ1-Cer [GM3] was tested. Which “Relative rate (%) Human ST6Gal I” value did it give?
A: 0%

Q: Which “Relative rate (%) Human ST6Gal I” value does the source give for Galβ1,4Glcβ1-Cer [Lactosylceramide] here?
A: 0%

Q: “α1-Acid glycoprotein: glycoprotein acceptor substrate purchased from Sigma” was tested. Which “Relative rate (%) Human ST6Gal I” value did it give?
A: 37.1%

Q: With “Asialo- α1-Acid glycoprotein: desialylated α1-acid glycoprotein prepared at 80° C. for 1 hour in 0.02 N HCl” as the molecule, how does the “Relative rate (%) Human ST6Gal I” value read?
A: 93.0%

Q: “Fetuin: glycoprotein acceptor substrate containing both O-glycans and N-glycans, purchased from Sigma” was tested. Which “Relative rate (%) Human ST6Gal I” value did it give?
A: 13.0%

Q: For “Galβ1,3GalNAcβ1,4(NeuAcα2,3)Galβ1,4Glcβ1-Cer [GM1a]”, which “Relative rate (%) Human ST6Gal I” value is on record?
A: 0%

Q: Which “Relative rate (%) Human ST6Gal I” value does the source give for B1 here?
A: 9.0%

Q: With B2 as the molecule, how does the “Relative rate (%) Human ST6Gal I” value read?
A: 12.7%
